From publication doi:10.1101/2022.08.08.502946 (bioRxiv, 2022)

What was measured:
[1] = target: NaKΔ18 S-ELM (Bacillus cereus) (UniProt Q81HW2); assay: crystal structure
[2] = target: the molecule itself; assay: crystal structure

stoichiometry N [1]	Molecule	stoichiometry N [2]
4	NaKΔ18 S-ELM (from UniProt Q81HW2 19-114) (domain or fragment)	–
–	NaKΔ18 C-DI (domain or fragment, Bacillus cereus, UniProt Q81HW2 19-114, looked up) WKDKEFQVLFVLTILTLISGTIFYSTVEGLRPIDALYFSVVTLTTVGCDISPQTDFGKIFTILYIFIGIGLVFGFIHKLAVNVQLPSILSNRKKE	4
–	NaKΔ18 C-DI F92A (domain or fragment, Bacillus cereus, UniProt Q81HW2 19-114, looked up) WKDKEFQVLFVLTILTLISGTIFYSTVEGLRPIDALYFSVVTLTTVGCDISPQTDFGKIFTILYIFIGIGLVAGFIHKLAVNVQLPSILSNRKKE	4
–	NaKΔ18 S-DI (domain or fragment, Bacillus cereus, UniProt Q81HW2 19-114, looked up) WKDKEFQVLFVLTILTLISGTIFYSTVEGLRPIDALYFSVVTLTTVGSDISPQTDFGKIFTILYIFIGIGLVFGFIHKLAVNVQLPSILSNRKKE	4
